From paper doi:10.1101/2022.07.31.502215

Biological target: SARS-CoV-2 main protease (Mpro) H172Y (SARS-CoV-2)

Substance: Dabcyl-KTSAVLQ↓SGFRKM-E(Edans)-NH2 FRET substrate (peptide)
- Michaelis constant Km, FRET-based cleavage assay (400 nM enzyme, substrate 10 to 320 μM, 20 mM HEPES, 120 mM NaCl, pH 7.0): 803 μM
